Biological target: VWF in the plasma of the mice (endogenous murine VWF) (murine) (UniProt Q8CIZ8)
Assay: sandwich ELISA of mouse plasma, anti-FVII capture, anti-VWF detection, n=4 mice

- OD450 nm: 0.684 OD450 nm
B1: FVII-KB13-bv (protein)
chain: AGGVAKASGGETRDMPWKPGPHRVFVTQEEAHGVLHRRRRANAFLEELRPGSLERECKEEQCSFEEAREIFKDAERTKLFWISYSDGDQCASSPCQNGGSCKDQLQSYICFCLPAFEGRNCETHKDDQLICVNENGGCEQYCSDHTGTKRSCRCHEGYSLLADGVSCTPTVEYPCGKIPILEKRNASKPQGRIVGGKVCPKGECPQVLLLVNGAQLCGGTLINTIWVVSAAHCFDKIKNWRNLIAVLGEHDLSEHDGDEQSRRVAQVIIPSTYVPGTTNHDIALLRLHQPVVLTDHVVPLCLPERTFSERTLAFVRFSLVSGWGQLLDRGATALELMVLNVPRLMTQDCLQQSRKVGDSPNITEYMFCAGYSDGSKDSCKGDSGGPHATHYRGTWYLTGIVSWGQGCATVGHFGVYTRVSQYIEWLQKLMRSEPRPGVLLRAPFPLTPRGVRLGGGSGGGSGGGSGGGSQVQLVQSGGGLVQAGDSLRLSCAASGRTFIRYAMAWFRQAPGKEREFVAAIPQSGGRSYYADSVKGRFTISRDNAKNTVYLQMNSLKPEDTAVYSCAATSTYYGRSAYSSHSGGYDYWGQGTQVTVSSGGGSGGGSGGGSGGGSQVQLVQSGGGLVQAGDSLRLSCAASGRTFIRYAMAWFRQAPGKEREFVAAIPQSGGRSYYADSVKGRFTISRDNAKNTVYLQMNSLKPEDTAVYSCAATSTYYGRSAYSSHSGGYDYWGQGTQVTVSS

From US20200207869A1
